Test results published in patent US20110165265A1, “TRAIL VARIANTS FOR TREATING CANCER” (FUNDACIÓ GENÒMICA (CRG), priority 2007, published 2011).

Legend:
DcR1 = molecular target: T1, DcR1 (Homo sapiens, UniProt O14798); test: SPR receptor binding assay, immobilized DcR1-Ig; conditions: 0.1-250 nM ligand
T1 construct: soluble, recombinant DcR1-Ig (sDcR1) and DcR2-Ig (sDcR2); purchased R&D Systems
T1 sequence (O14798 26-236 limits assumed): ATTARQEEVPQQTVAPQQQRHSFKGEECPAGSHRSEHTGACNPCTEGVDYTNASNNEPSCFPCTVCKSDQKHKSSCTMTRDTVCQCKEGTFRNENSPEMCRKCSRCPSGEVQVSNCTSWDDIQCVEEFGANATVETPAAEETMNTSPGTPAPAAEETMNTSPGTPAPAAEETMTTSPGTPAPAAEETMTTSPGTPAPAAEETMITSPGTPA
Description: (§1) The response data (in response units) as a function of TRAIL concentration were fitted using a four parameter equation to give an apparent pre-steady state affinity constant.
(§2) Binding experiments were performed at 37° C. using a surface plasmon resonance-based biosensor (Biacore 3000, Biacore AB, Uppsala, Sweden) as previously described^10. In short, DcR1-Ig and DcR2-Ig receptor chimeras (R&D Systems) were captured at a 35 μl/min flow rate using a protein A (Sigma) modified CM5 sensor chip (Biacore). Receptor chimeras were captured at a level of ˜500-800 response units (RU). […] Binding of ligands to the receptors was monitored in real-time. Between injections the protein A sensor surface was regenerated using a 30s pulse of 0.1 M glycine 0.5 M NaCl pH 3. Due to the very slow dissociation of the TRAIL-receptor complex, only pre-steady state binding data could be obtained. In order to obtain data that represent proper high-affinity complex formation, the response at each concentration was recorded 30 sec after the end of the injection. The response data (in response units) as a function of TRAIL concentration were fitted using a four parameter equation to give an apparent pre-steady state affinity constant.
(§3) Affinity of the ligands was assessed by measuring receptor binding in a concentration range of 0.1-250 nM.

ML-1 cells = test: Cytotoxicity in ML-1 cells; type: cell-based
Description: (§4) Colo205 and ML-1 cells were then treated with increasing concentrations of TRAIL or the DR5-specific variants D269H, D269HE195R, and D269H/T214R, and their cytotoxic potential was measured with a 3-(4,5-dimethylthiazol-2-yl)-2,5-diphenyl tetrazolium bromide (MTT) assay.

SW948 cells = test: Cell survival / sensitivity of SW948; type: cell-based
Human dermal fibroblasts = test: MTT viability of human dermal fibroblasts; type: cell-based; conditions: 50-500 ng/ml, 24 h
Description: (§5) Human dermal fibroblasts were grown in low glucose DMEM (Sigma) supplemented with 10% fetal calf serum, 50 U/ml penicillin and […] streptomycin; human umbilical vein endothelial cells (HUVEC, PromoCell) were cultured in Endothelial Cell Growth Medium with SupplementMix (PromoCell). Fibroblasts and HUVEC cells were seeded at 1.3×10^5 cells/ml 24 h before treatment with increasing concentrations of TRAIL and DR5-selective variants, D269H and D269HE195R (50-500 ng/ml) for 24 h and cell viability was measured using MTT assay, wherein 200 μg/ml MTT (3-(4,5-dimethylthiazo1-2-yl)-2,5-diphenyl-tetrazolium bromide) was added to control and treated cells and incubated for 3 h at 37° C. The reaction was stopped and the purple formazan precipitate formed was dissolved using dimethyl sulfoxide (DMSO) and the colour intensity was measured at 550 nm on a Wallac multilabel counter. The control value corresponding to untreated cells was taken as 100% and the viability of treated samples was expressed as a percentage of the control. (FIG. 15).

LoVo cells = test: Cell survival / sensitivity of LoVo; type: cell-based
Source text: C) Effect of increasing concentration of 5-Flurouracil on Lovo cells.

Caski cells = test: Cell survival / sensitivity of Caski; type: cell-based
DcR2 = molecular target: T2, DcR2 (Homo sapiens, UniProt Q9UBN6); test: SPR receptor binding assay, immobilized DcR2-Ig; conditions: 0.1-250 nM ligand
T2 construct: soluble, recombinant DcR1-Ig (sDcR1) and DcR2-Ig (sDcR2); purchased R&D Systems
T2 sequence (Q9UBN6 56-211 limits assumed): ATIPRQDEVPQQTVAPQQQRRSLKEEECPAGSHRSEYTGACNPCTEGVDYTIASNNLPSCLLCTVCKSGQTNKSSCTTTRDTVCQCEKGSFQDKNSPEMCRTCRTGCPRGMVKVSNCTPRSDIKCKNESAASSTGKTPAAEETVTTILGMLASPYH
Description: as §1, §2, §3

Colo205 cells [1] = test: Colo205 apoptosis after pre-incubation of ligand with soluble receptor-Ig; type: cell-based, human; conditions: 10 ng/ml ligand
Description: (A) Effect of soluble recombinant DcR1-Ig (sDcR1) on apoptosis induction by TRAIL and DR5-selective variants. […] All graphs are representatives of two independent repeats. (D) Neutralizing antibodies against DcR1 and DcR2 can augment wtTRAIL- but not DR5-variant induced cell death. […] Induction of apoptosis was measured 3 h post-treatment using Annexin V assay. […] The graphs show the average±SEM of three independent experiments.
Induction of cell death was assessed by Annexin V assay 3 h after treatment (FIG. 14), as described above. […] (FIG. 14C). This confirms that the observed differences in blocking efficacy are due to reduced ability of the decoy receptors to bind and inhibit D269H and D269HE195R.

Colo205 cells [2] = test: Cell survival / sensitivity of Colo205; type: cell-based; conditions: Colo205
Description: (B) Effect of increasing concentrations of Aspirin on cell viability. (C) Effect of increasing concentrations of 5-Flurouracil on cell viability. (D) Combination therapy with 5 mM Aspirin pre-incubated for 24 h lead to further decreases in cell viability in cells treated with both TRAIL and two of the DR5 mutants. (E) 30 minute incubation of DR5 mutants, were sufficient decrease cell viability which was further augmented when cells were pre-incubated for 24 h with Aspirin. The shorter incubation period lead to a decrease potency of TRAIL alone or in combination with Aspirin. […] (G) 30 min incubation of the DR5 mutant was sufficient to decrease cell viability which was not enhanced by 5-Flurouracil, and once again the decease potency of TRAIL is seen. Proteins are indicated as follows: TRAIL stands for rhTRAIL WT; D269H stands for rhTRAIL carrying mutation D269H; E195R stands for rhTRAIL carrying mutations D269H and E195R; and M1 stands for rhTRAIL carrying mutations D269H, E194I and I196S.
TRAIL-induced cell death as a function of concentration was measured with the MTS assay.

A2780 cells [3] = test: Annexin V apoptosis assay in A2780; type: cell-based, human; conditions: A2780 ovarian cancer cells
[4] = test system: human umbilical vein endothelial cells (HUVEC); test: Viability of HUVEC; type: cell-based; conditions: 50-500 ng/ml, 24 h, MTT
Description: as §5

A2780 cells [5] = test: MTT cytotoxicity in A2780 (Example 6); type: cell-based; conditions: A2780 (FIG. 8E)
DR5 = molecular target: T3, DR5 (Homo sapiens, UniProt O14763); conditions: earlier work referred to; cited from earlier work
T3 construct: Effect of soluble recombinant DR5-Ig (sDR5) on apoptosis induction

DR4 = molecular target: T4, DR4 (Homo sapiens, UniProt O00220); conditions: earlier work referred to; cited from earlier work
T4 construct: the more commonly used dimeric TRAIL-receptor-IgG Fc chimeric constructs
T4 sequence (O00220 24-239 limits assumed): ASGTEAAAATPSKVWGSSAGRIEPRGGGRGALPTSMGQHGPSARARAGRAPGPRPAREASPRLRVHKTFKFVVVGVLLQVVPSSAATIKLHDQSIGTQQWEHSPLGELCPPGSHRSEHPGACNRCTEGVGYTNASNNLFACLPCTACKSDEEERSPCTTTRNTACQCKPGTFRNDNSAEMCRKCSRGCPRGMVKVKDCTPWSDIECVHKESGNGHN

HeLa cells = test: Cell survival / sensitivity of HeLa; type: cell-based
Description: (B) Effect of increasing of Bortezomib on cell viability. Hela cells appear to tolerate higher concentration of Bortezomib compared to Caski and SIHA cells (C) Combination therapy with 10 nM Bortezomib incubated for 24 h lead to further decreases in cell viability in cells treated with both TRAIL and two of the DR5 mutants (D) Radiation therapy in combination with TRAIL or the DR5 mutants further decrease cell viability in HELA cells. The DR5 mutant show decrease cell viability at lower concentration of ligand compared to TRAIL.

Colo205 cells [6] = test: MTT cytotoxicity and DR4/DR5 neutralizing antibodies in Colo205; type: cell-based, human; conditions: Colo205, at a lower concentration (FIG. 8C)
Description: To assess the biological activity related to DR5 binding, various cancer cells were used. Colo205 colon carcinoma cells and ML-1 […] myeloid leukemia cells express all four TRAIL receptors on the cell surface, as shown by using FACS analysis (FIG. 7), and are sensitive to TRAIL-induced apoptosis. To test the involvement of DR4 versus DR5 in TRAIL-induced cell death, Colo205 cells were treated with neutralizing anti-DR4 or anti-DR5 antibody for 1 h before the addition of TRAIL. […] In contrast, the DR4 pathway is the major mediator of TRAIL-induced apoptosis in ML-1 cells (FIG. 8A.) To examine whether the DR5-specific TRAIL variants induce cell death in Colo205 cells by way of the DR5 receptor, 1 μg/ml neutralizing anti-DR4 or -DR5 antibodies were administered 1 h before ligand treatment.
as §4

B1: D269H: rhTRAIL carrying mutation D269H; DR5-selective TRAIL variant (protein)
chain: MVRERGPQRVAAHITGTRGRSNTLSSPNSKNEKALGRKINSWESSRSGHSFLSNLHLRNGELVIHEKGFYYIYSQTYFRFQEEIKENTKNDKQMVQYIYKYTSYPDPILLMKSARNSCWSKDAEYGLYSIYQGGIFELKENDRIFVSVTNEHLIDMHHEASFFGAFLVG
In the case of B1, the “binding towards DcR1, reduction compared to wtTRAIL” value (DcR1) is reported as “approximately 20 fold”, the cell death induction (ML-1 cells) is reported as “only TRAIL was able to induce cell death” and the “cell viability, single agent” value (SW948 cells) is reported as “decreased cell viability”. The cell viability (Human dermal fibroblasts) was “did not result in a decrease in cell viability”, the “cell viability, single agent” value (LoVo cells) was “equal decrease in cell viability” and the “cell viability, single agent” value (Caski cells) was “comparable”. The “binding toward DcR2 compared to wtTRAIL” value (DcR2) was “reduced”, the “effect of pre-incubation with sDcR2 on apoptosis induction” value (Colo205 cells [1]) was “only at a two fold higher concentration than for wtTRAIL” and the “effect of pre-incubation with sDcR1 on pro-apoptotic activity” value (Colo205 cells [1]; sDcR1 up to 2 μg/ml) was “failed to reduce”. The “cell viability, single agent” value (Colo205 cells [2]) was “significantly less cell viability than TRAIL”, the “increase in apoptosis / efficiency compared to wtTRAIL” value (A2780 cells [3]) was 3-4 fold and the cell viability [4] was “did not result in a decrease in cell viability”. The “cytotoxic activity compared with wild-type TRAIL” value (A2780 cells [5]) was “significantly increased”, the “affinity for the DR5 receptor” value (DR5) was “increased” and the “binding to DR4” value (DR4) was “highly reduced”. For the same molecule, the “cell viability, single agent” value (HeLa cells) was “comparable”.

B2: M1: rhTRAIL carrying mutations D269H, E194I and I196S (protein, UniProt P50591 1-281, looked up, variant D269H E194I I196S)
Tumor necrosis factor ligand …: MAMMEVQGGPSLGQTCVLIVIFTVLLQSLCVAVTYVYFTNELKQMQDKYSKSGIACFLKEDDSYWDPNDEESMNSPCWQVKWQLRQLVRKMILRTSEETISTVQEKQQNISPLVRERGPQRVAAHITGTRGRSNTLSSPNSKNEKALGRKINSWESSRSGHSFLSNLHLRNGELVIHEKGFYYIYSQTYFRFQIESKENTKNDKQMVQYIYKYTSYPDPILLMKSARNSCWSKDAEYGLYSIYQGGIFELKENDRIFVSVTNEHLIDMHHEASFFGAFLVG
With B2 the “cell viability, single agent” value (SW948 cells) was “decreased cell viability”, the “cell viability, single agent” value (LoVo cells) was “equal decrease in cell viability” and the “cell viability, single agent” value (Caski cells) was “comparable”. For the same molecule, the “cell viability, single agent” value (Colo205 cells [2]) was “significantly less cell viability than TRAIL” and the “cell viability, single agent” value (HeLa cells) was “comparable”.

B3: D269HT214R: TRAIL variant containing mutations D269H and T214R (protein, UniProt P50591 1-281, looked up, variant D269H T214R)
Tumor necrosis factor ligand …: MAMMEVQGGPSLGQTCVLIVIFTVLLQSLCVAVTYVYFTNELKQMQDKYSKSGIACFLKEDDSYWDPNDEESMNSPCWQVKWQLRQLVRKMILRTSEETISTVQEKQQNISPLVRERGPQRVAAHITGTRGRSNTLSSPNSKNEKALGRKINSWESSRSGHSFLSNLHLRNGELVIHEKGFYYIYSQTYFRFQEEIKENTKNDKQMVQYIYKYRSYPDPILLMKSARNSCWSKDAEYGLYSIYQGGIFELKENDRIFVSVTNEHLIDMHHEASFFGAFLVG
For B3, the cell death induction (ML-1 cells) was “only TRAIL was able to induce cell death”, the “increase of apoptosis rate compared to wtTRAIL” value (Colo205 cells [6]) was 1.5 fold and the “increase in apoptosis / efficiency compared to wtTRAIL” value (A2780 cells [3]) was 2 fold. For the same molecule, the “cytotoxic activity compared with wild-type TRAIL” value (A2780 cells [5]) was “significantly increased”.
